# According to patent US9212226B2, “Amino acid sequences directed against CXCR4 and other GPCRs and compounds comprising the same” (Ablynx N.V., priority 2008, dated 2015):
# “Also recorded” adds a separate entry of the source.
# B1: 238D2-15GS-238D4: heterobivalent Nanobody, 238D2 linked to 238D4 by a 15 amino acid GGGGS linker (protein)
# chain: EVQLVESGGGLVQTGGSLRLSCAASGFTFSSYAMSWVRQAPGKGLEWVSGIKSSGDSTRYAGSVKGRFTISRDNAKNMLYLQMYSLKPEDTAVYYCAKSRVSRTGLYTYDNRGQGTQVTVSSGGGGSGGGGSGGGGSEVQLMESGGGLVQAGGSLRLSCAASGRTFNNYAMGWFRRAPGKEREFVAAITRSGVRSGVSAIYGDSVKDRFTISRDNAKNTLYLQMNSLKPEDTAVYTCAASAIGSGALRRFEYDYSGQGTQVTVSS
# modifications: Nanobody, Nanobody constructs or fragments thereof
# notes: heterobivalent Nanobody, 238D2 linked to 238D4 by a 15 amino acid GGGGS linker
# B2: 238C5: Nanobody (VHH) raised against human CXCR4, SEQ ID NO: 243 (protein)
# VHH: EVQLMESGGGLVQAGGSLRLACAASGFTFEDYAIGWFRKAPGKEREGVSCISGSDGSTTYADSVKGRFTISTDNAKNTVYLEMNSLKPEDTAVYYCAQQYGVGGRVVCPGPYEYDVWGQGTQVTVSS
# modifications: Nanobody, Nanobody constructs or fragments thereof
# B3: 238D2-20GS-238D4: heterobivalent Nanobody, 238D2 linked to 238D4 by a 20 amino acid GGGGS linker (protein)
# chain: EVQLVESGGGLVQTGGSLRLSCAASGFTFSSYAMSWVRQAPGKGLEWVSGIKSSGDSTRYAGSVKGRFTISRDNAKNMLYLQMYSLKPEDTAVYYCAKSRVSRTGLYTYDNRGQGTQVTVSSGGGGSGGGGSGGGGSGGGGSEVQLMESGGGLVQAGGSLRLSCAASGRTFNNYAMGWFRRAPGKEREFVAAITRSGVRSGVSAIYGDSVKDRFTISRDNAKNTLYLQMNSLKPEDTAVYTCAASAIGSGALRRFEYDYSGQGTQVTVSS
# modifications: Nanobody, Nanobody constructs or fragments thereof
# notes: heterobivalent Nanobody, 238D2 linked to 238D4 by a 20 amino acid GGGGS linker
# What was measured:
# CXCR4 [1] = target: T1, CXCR4 (Homo sapiens, UniProt P61073); experiment: [125I]-CXCL12 competition binding on membranes from HEK293T cells transiently expressing CXCR4; conditions: for Rel. potency, relative to monovalent 238D2 / Rel. potency, relative to monovalent 238D4: [125I]-CXCL12 displacement; for Rel. potency, relative to monovalent 238D2: potency relative to those of monovalent 238D2; for Rel. potency, relative to monovalent 238D4: potency relative to those of monovalent 238D4
# T1 sequence (P61073 whole entry): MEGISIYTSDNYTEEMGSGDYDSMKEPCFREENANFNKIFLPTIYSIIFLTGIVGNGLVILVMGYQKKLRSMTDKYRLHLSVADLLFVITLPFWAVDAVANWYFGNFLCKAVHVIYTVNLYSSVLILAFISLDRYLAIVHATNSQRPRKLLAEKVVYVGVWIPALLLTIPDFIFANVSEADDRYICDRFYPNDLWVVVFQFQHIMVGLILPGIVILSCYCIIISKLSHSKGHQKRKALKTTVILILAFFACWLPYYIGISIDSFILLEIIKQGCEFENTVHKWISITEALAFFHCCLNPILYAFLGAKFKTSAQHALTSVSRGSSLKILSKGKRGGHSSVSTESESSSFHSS
# Procedure: (§1) HEK293T cells were maintained at 37° C. in a humidified 5% CO2, 95% air atmosphere in Dulbecco's modified Eagle's medium (DMEM) containing 2 mM L-glutamine, 50 IU/ml penicillin, 50 μg/ml streptomycin, and 10% (v/v) fetal calf serum. Jurkat cells were cultured in a humidified 5% CO2, 95% air atmosphere in a 1:1 mixture of Dulbecco's modified Eagle's medium (DMEM) and Ham's F12 medium containing 2 mM L-glutamine, 50 IU/ml penicillin, 50 μg/ml streptomycin, and 10% (v/v) fetal calf serum. […] [^125 I]-Labelling— Radiolabeling of Nanobodies with ^125I was performed using the Iodo-gen method (Pierce, Rockford, Ill.) according to the manufacturer's protocol. ^125I-labeled Nanobodies was separated from free iodine (>99%) using a Sephadex G-25 gel filtration column (Amersham Biosciences, Piscataway, N.J.). […] Competition Binding Assays— Membranes from HEK293T cells transiently expressing CXCR3 or CXCR4 were prepared 48 h after transfection as follows. Cells were washed and scraped from the cell culture dishes with ice-cold PBS containing 1 mm EDTA. The scraped cells were pelleted at 1500×g for 10 min at 4° C. The pellet was washed and then resuspended in ice-cold membrane buffer (15 mM Tris, pH 7.5, 1 mM EGTA, 0.3 mM EDTA, and 2 mM MgCl2). The cell suspension was homogenized by 10 strokes at 1200 rpm using a Teflon-glass homogenizer and rotor and further subjected to three freeze-thaw cycles using liquid nitrogen. Membranes were separated by centrifugation at 40,000 g for 25 min at 4° C. The membrane pellet was washed and resuspended in ice-cold Tris-sucrose buffer (20 mM Tris, pH 7.4, and 250 mM sucrose) and frozen in liquid nitrogen. The total protein was determined using a Bradford assay (Bio-Rad). […] Membranes were then harvested over polyethylenimine (0.5%)-treated Whatman GF/C filter plates and washed three times with ice cold binding buffer containing 500 mM NaCl. Plates were counted by liquid scintillation. Inositol Phosphate Accumulation Assay— 24 hours post transfection with pcDNA3.1-CXCR4 and pcDNA1-HA-mG {alpha} qi5 (see Verzijl et al, 2008 supra), 250.000 cells were seeded into 24-wells plates and labelled overnight using inositol-free minimal essential medium supplemented with 1 μCi myo-[2-^3H]-inositol. The next day, the cells were washed once to remove not incorporated myo-[2-^3H]-inositol. […] In agonist experiments, the cells were directly stimulated with test compounds and LiCl (10 mM) in assay buffer for 2 h at 37° C. The stimulation was stopped by aspirating the stimulation medium and adding ice-cold 10 mM formic acid. The accumulated inositol phosphates were isolated by anion exchange chromatography and counted by liquid scintillation. CRE Reporter Gene Assay— HEK239T cells were transfected with pCRE/β-galactosidase (Chen W, Shields T S, Stork P J S, Cone R D (1995) Anal Biochem 226:349-354) and plasmids (pcDEF3 or pcDNA3.1) encoding the indicated receptors. 40,000 transfected cells per well were seeded into 96 well plates and grown in DMEM supplemented with 10% fetal calf serum. The medium was replaced 32 h after transfection by serum-free DMEM supplemented with 0.5% bovine serum albumin and ligands as indicated. […] The β-galactosidase activity was determined by the measurement of absorption at 420 nm with a PowerwaveX340 plate reader (Bio-Tek Instruments Inc., Winooski, Vt.) after incubation with the assay buffer when the OD420 value for forskolin (3 μM) controls reached 0.4-0.6. Chemotaxis Assay— The chemotactic responsiveness of Jurkat 3D cells was assessed using ChemoTx™ plates (Receptor Technologies Ltd., Oxon, UK) in which a upper cell-containing compartment is separated from a lower chemoattractant-containing compartment by a polyvinylpyrollidone-free polycarbonate filter with 5-μm pores. Cells were harvested, washed and resuspended in RPMI containing 0.5% bovine serum albumin and then loaded to 150,000 cells per well in a volume of 25 μl into the upper compartment of the chemotaxis chamber.
# CXCR4 [2] = target: T1, CXCR4; experiment: [125I]-238D2 competition binding on membranes from HEK293T cells transiently expressing CXCR4; conditions: for displacement of [125I]-238D2 from CXCR4: [125I]-238D2 3 nM
# Procedure: as §1
# CXCR4 (N119A) = CXCR4 (N119A) (Homo sapiens, UniProt P61073, N119A); experiment: Basal inositol phosphate accumulation in HEK293T cells expressing CXCR4 (N119A); assay type: cell-based
# Sequence of CXCR4 (N119A) (P61073 whole entry N119A): as the sequence (P61073 whole entry) above, with N119A counted along it
# Procedure: (§2) HEK293T cells were maintained at 37° C. in a humidified 5% CO2, 95% air atmosphere in Dulbecco's modified Eagle's medium (DMEM) containing 2 mM L-glutamine, 50 IU/ml penicillin, 50 μg/ml streptomycin, and 10% (v/v) fetal calf serum. Jurkat cells were cultured in a humidified 5% CO2, 95% air atmosphere in a 1:1 mixture of Dulbecco's modified Eagle's medium (DMEM) and Ham's F12 medium containing 2 mM L-glutamine, 50 IU/ml penicillin, 50 μg/ml streptomycin, and 10% (v/v) fetal calf serum. […] [^125 I]-Labelling— Radiolabeling of Nanobodies with ^125I was performed using the Iodo-gen method (Pierce, Rockford, Ill.) according to the manufacturer's protocol. ^125I-labeled Nanobodies was separated from free iodine (>99%) using a Sephadex G-25 gel filtration column (Amersham Biosciences, Piscataway, N.J.). […] Competition Binding Assays— Membranes from HEK293T cells transiently expressing CXCR3 or CXCR4 were prepared 48 h after transfection as follows. Cells were washed and scraped from the cell culture dishes with ice-cold PBS containing 1 mm EDTA. The scraped cells were pelleted at 1500×g for 10 min at 4° C. The pellet was washed and then resuspended in ice-cold membrane buffer (15 mM Tris, pH 7.5, 1 mM EGTA, 0.3 mM EDTA, and 2 mM MgCl2). The cell suspension was homogenized by 10 strokes at 1200 rpm using a Teflon-glass homogenizer and rotor and further subjected to three freeze-thaw cycles using liquid nitrogen. Membranes were separated by centrifugation at 40,000 g for 25 min at 4° C. The membrane pellet was washed and resuspended in ice-cold Tris-sucrose buffer (20 mM Tris, pH 7.4, and 250 mM sucrose) and frozen in liquid nitrogen. The total protein was determined using a Bradford assay (Bio-Rad). Periplasmas (1:10) or ligands were pre-incubated with membranes in binding buffer (50 mM HEPES (pH 7.4), 1 mM CaCl2, 5 mM MgCl2, 100 mM NaCl, 0.5% bovine serum albumin) supplemented with 0.5% BSA for 1 h at 22° C. before the addition of [^125I]-CXCL12 (40 pM) or [^125I]-238D2 (3 nM) or [^125I]-238D4 (3 nM) for additional 2 h at 22° C. […] Membranes were then harvested over polyethylenimine (0.5%)-treated Whatman GF/C filter plates and washed three times with ice cold binding buffer containing 500 mM NaCl. Plates were counted by liquid scintillation. Inositol Phosphate Accumulation Assay— 24 hours post transfection with pcDNA3.1-CXCR4 and pcDNA1-HA-mG {alpha} qi5 (see Verzijl et al, 2008 supra), 250.000 cells were seeded into 24-wells plates and labelled overnight using inositol-free minimal essential medium supplemented with 1 μCi myo-[2-^3H]-inositol. The next day, the cells were washed once to remove not incorporated myo-[2-^3H]-inositol. […] In agonist experiments, the cells were directly stimulated with test compounds and LiCl (10 mM) in assay buffer for 2 h at 37° C. The stimulation was stopped by aspirating the stimulation medium and adding ice-cold 10 mM formic acid. The accumulated inositol phosphates were isolated by anion exchange chromatography and counted by liquid scintillation. CRE Reporter Gene Assay— HEK239T cells were transfected with pCRE/β-galactosidase (Chen W, Shields T S, Stork P J S, Cone R D (1995) Anal Biochem 226:349-354) and plasmids (pcDEF3 or pcDNA3.1) encoding the indicated receptors. 40,000 transfected cells per well were seeded into 96 well plates and grown in DMEM supplemented with 10% fetal calf serum. The medium was replaced 32 h after transfection by serum-free DMEM supplemented with 0.5% bovine serum albumin and ligands as indicated. […]
# CXCR4 [3] = target: T1, CXCR4; experiment: [125I]-238D4 competition binding on membranes from HEK293T cells transiently expressing CXCR4; conditions: for displacement of [125I]-238D4 from CXCR4: [125I]-238D4 3 nM
# Procedure: as §1
# [4] = test system: Jurkat cells endogenously expressing CXCR4; experiment: Chemotaxis assay (ChemoTx plates) with Jurkat cells towards CXCL12; assay type: cell-based; conditions: for inhibition of migration of Jurkat cells towards CXCL12: 300 pM CXCL12; for Imax (%), Chemotaxis, bivalent Nanobodies: Jurkat/0.3 nM CXCL12, mean ± S.E.M.; for pKi, antagonism of the chemoattractant effects of CXCL12: n=3
# Procedure: as §2, with “indicated. Following 16 h of ligand incubation, the medium was removed, the cells were lysed in 100 μl of assay buffer (100 mM sodium phosphate buffer at pH 8.0, 4 mM 2-nitrophenol-β-D-pyranoside, 0.5% Triton X-100, 2 mM MgSO4, 0.1 mM MnCl2, and 40 mM β-mercaptoethanol) and incubated at room temperature.” for “indicated.”
# [5] = membranes from HEK293T cells transiently expressing CXCR4, mean ± S.E.M.
# [6] = at highest test concentration of 0.5 μM (footnote a: no significant displacement; b: maximum not reached)
Molecule,displacement of [125I]-238D2 from CXCR4 (CXCR4 [2]),displacement of [125I]-238D4 from CXCR4 (CXCR4 [3]),"Rel. potency, relative to monovalent 238D2 (CXCR4 [1])","Rel. potency, relative to monovalent 238D4 (CXCR4 [1])","Displacem. (%) of [125I]-CXCL12 (maximal displacement), bivalent Nanobodies (CXCR4 [1]; [5])","pKi, [125I]-CXCL12, bivalent Nanobodies (CXCR4 [1]; [5])",inhibition of migration of Jurkat cells towards CXCL12 [4],"Imax (%), Chemotaxis, bivalent Nanobodies [4]","pKi, antagonism of the chemoattractant effects of CXCL12 [4]",other results
"c1cc(CN2CCCNCCNCCCNCC2)ccc1CN1CCCNCCNCCCNCC1 [AMD3100, reference compound]",displaces,displaces,,,,,,,,"Displacem. (%) of [125I]-CXCL12 (maximal displacement) (CXCR4 [1]; [5]): 94 ± 2%; Displacem. (%) of [125I]-238D2 (maximal displacement) (CXCR4 [2]; [5]): 102 ± 1%; functional profile at CXCR4 (N119A) (CXCR4 (N119A); ligand-induced alteration of basal inositol phosphate accumulation, listed as plerixafor): neutral antagonist; also recorded: Neither significant agonistic nor inverse antagonistic activity; effect on the nanobody-induced reduction of basal inositol phosphate accumulation (CXCR4 (N119A); with 238D4, L3 and L8): antagonized; Displacem. (%) of [125I]-238D4 (maximal displacement) (CXCR4 [3]; [5]): 99 ± 4%"
"CXCL12: stromal-derived-factor-1, the natural (endogenous) ligand for CXCR4 [reference compound]",,,,,,,,,,stimulation of the mutant receptor (CXCR4 (N119A); inositol phosphate accumulation): 0.4 fold over basal
B1,,,28,17,92 ± 6%,9.45 ± 0.09,fully antagonized,107 ± 5%,9.86±0.04,
B2,displaces,displaces,,,,,,,,"Displacem. (%) of [125I]-CXCL12 at 0.5 μM (CXCR4 [1]; at highest test concentration of 0.5 μM (footnote a: no significant displacement)): 0^a %; affinity to CXCR4 (CXCR4 [1]; in words): low affinity; displacement of specifically bound [125I]-CXCL12 (CXCR4 [1]; purified ligands, highest Nanobody test concentration 0.5 μM): unable to displace; Binding (binding efficiency, competition binding with [125I]-CXCL12) (CXCR4 [1]; screening of Nanobody clone pools, membranes from HEK293T cells transiently expressing CXCR4): + (+ = 30-69%); Displacem. (%) of [125I]-238D2 at 0.5 μM (CXCR4 [2]; [6]): 45 ± 5^b %; binding mode at CXCR4 (CXCR4 [2]; displacement of labelled Nanobodies only at ≧100 nM): low affinity allosteric CXCR4 ligand; Displacem. (%) of [125I]-238D4 at 0.5 μM (CXCR4 [3]; [6]): 38 ± 4^b %"
B3,,,27,17,103 ± 4%,9.44 ± 0.07,fully antagonized,100 ± 4%,10.19±0.27,increase in affinity to CXCR4 over monovalent 238D2 (CXCR4 [1]; heterobivalent construct): 27 fold; increase in affinity to CXCR4 over monovalent 238D4 (CXCR4 [1]; heterobivalent construct): 17 fold
